Experimental data published in US9289500B2, “Saccharide-peptide hydrogels” (The Regents of the University of California, priority 2013, dated 2016).
Bridges are numbered along the chain shown (N, C = ends). Where no end group is shown, it is not given here. The star is where a group is joined. Acm = CC(=O)NC*

Columns and labels:
[1] = molecular target: T1, IFN-γ (Homo sapiens, UniProt P01579); conditions: cited from earlier work
T1 sequence (P01579 24-161 limits assumed): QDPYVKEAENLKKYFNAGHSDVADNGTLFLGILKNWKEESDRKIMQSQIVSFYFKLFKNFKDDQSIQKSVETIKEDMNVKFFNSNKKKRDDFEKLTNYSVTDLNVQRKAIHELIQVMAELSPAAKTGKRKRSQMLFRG

[2] = tested on: TNF-α; assay: TNF-α mediated PUMA mRNA up-regulation in islets; assay type: cell-based; conditions: human islets
Source text: PUMA and INS Pre-mNRA as markers for islet health in response to cytokine insults. Inflammation mediated proinflammatory cytokines, including Tumor necrosis factor (TNF)-α, Interleukin(IL)-1β, Interferon (IFN)-γ, play an important role on β cell death, leading to primary graft nonfunction. […] Elevated PUMA mRNA by TNF-α or the TNF-α+ and IFN-γ combination correlated with decreased islet function, as indicated by decreased preproinsulin (INS) pre-mRNA expression (r=−0.45, p<0.001) assessed by the single islet gene expression assay (RT-PCR). TNF-α receptor blocker, Etanercept, abolished TNF-α mediated PUMA mRNA up-regulation in human islets. PUMA mRNA and INS pre-mRNA expressions are used herein as markers for islet health under cytokine insults.

[3] = molecular target: TNF-α (Homo sapiens, UniProt P01375); conditions: cited from earlier work
Chain of TNF-α (Homo sapiens, UniProt P01375) (P01375 77-233 limits assumed, species assumed): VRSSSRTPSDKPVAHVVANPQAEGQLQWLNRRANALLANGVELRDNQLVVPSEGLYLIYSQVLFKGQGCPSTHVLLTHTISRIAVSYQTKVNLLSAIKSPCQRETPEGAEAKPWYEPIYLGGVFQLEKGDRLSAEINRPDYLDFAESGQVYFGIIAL

[4] = tested on: Peripheral blood mononuclear cells (PBMC); assay: In vitro biocompatibility: stimulation assay of PBMC, cytokine mRNA; assay type: cell-based, LEW rat; conditions: IFN-γ, CXCL1, IL6, GMCSF mRNA levels
Description: In Vitro Biocompatibility Assay of SP Hydrogel by Stimulation Assay of Peripheral Blood Mononuclear Cells (PBMC). PBMC from a normal LEW rat were isolated using Histopaque (Sigma-Aldrich, St. Louis, Mo.). 1×10^6 Cells were incubated with either 0.5 μL phosphate buffered saline (PBS), 0.5 mg vicryl suture, 0.5 mg hydrogel, 0.5 mg VS-polymer, 0.5 mg Cys-polymer, or 5 μg of LPS for 20 hours at 37° C. Differences in Ct between the target and control (Actb) mRNA (ΔCt) were used to quantify the relative level for each sample's mRNA expression.
Ex vivo biocompatibility of soluble polymers and SP hydrogel: An SP hydrogel was formed by in situ crosslinking by mixing a cysteine-functionalized (Cys-polymer) and a vinyl sulfone-functionalized (VS-polymer) saccharide-peptide copolymer under mild conditions, according to protocols presented in Chawla et al., Biomacromolecules (2011) 12:560-567, and Chawla et al., Biomaterials (2012) 33:6052-6060, which are incorporated herein in their entirety. […] The mRNA expression of inflammatory cytokines released by PBMC, including TNF-α (killer cell), IFN-γ (T-cell activation), CXCL1 (IL-8 analog, recruiter), IL6 (killer cell), and GMCSF (antigen presentation) was assessed to detect any immune stimulatory effect.

AYC(acm)RDGKIGPPKLDIRKEEKQI (AYC(Acm)RDGKIGPPKLDIRKEEKQI) [antagonizing peptide for IFN-γ; acm: acetamidomethyl]
antagonism of IFN-γ [1]: potent antagonists

Etanercept
TNF-α mediated PUMA mRNA up-regulation [2]: abolished

YCWSQYLCY (disulfide 2-8 (inferred)) [antagonizing peptide for TNF-α]
antagonism of TNF-α [3]: potent antagonists

lipopolysaccharide [LPS]
stimulatory effect / mRNA response compared to LPS [4]: highest stimulatory effect
